B1: Cell division cycle and apoptosis regulator protein 1, residues 625 to 674; numbered along this chain, Q8IX12 (parent)
chain: ISTPTHWSKLDPKTMKVNDLRKELESRALSSKGLKSQLIARLTKQLKVEE

Variants of: B1
Assay: abundance fitness (aPCA) (normalised: wild type 0, dead -1); higher = more abundant; growth selection in yeast, the domain comes from the species named
Conditions: Homo sapiens

Abundance fitness: each site, then its substitutions
W7: T -0.103 | D -0.197 | I -0.258 | R -0.178 | M -0.122 | E -0.139 | Q -0.279 | F -0.022 | K -0.142 | P -0.101 | S -0.104 | Y -0.051 | V -0.157 | L -0.223 | C -0.112 | A -0.088 | G -0.187 | N -0.29
K16: W -0.354 | V -0.228 | N 0.033 | S -0.011 | F -0.191 | H 0.061 | G -0.059 | P -0.15 | R -0.173 | M -0.24 | Y -0.153 | T -0.142 | A -0.227 | L -0.061 | E -0.066 | D -0.068 | C -0.048 | I -0.127
T14: D -0.061 | L -0.131 | A -0.019 | E -0.011 | F -0.204 | Y -0.05 | R 0.178 | M -0.013 | H 0.135 | V -0.029 | P -0.798 | C -0.074 | I 0.007 | N 0.038 | S -0.005 | K 0.257 | Q -0.022
L20: T -0.727 | W -0.833 | Y -0.751 | H -0.752 | C -0.416 | D -0.741 | N -1.08 | E -0.788 | M -0.115 | V -0.284 | S -0.859 | A -0.618 | Q -0.621 | F -0.65 | P -0.899 | I 0.136 | G -0.89
S8: A -0.081 | M -0.254 | E -0.006 | D -0.126 | H -0.074 | V -0.304 | C -0.007 | Q -0.395 | Y -0.173 | P -0.616 | N -0.09 | T -0.113 | F -0.338 | G -0.036 | W -0.272 | I -0.407 | K -0.061 | R -0.189
D11: W -0.109 | C 0.093 | S 0.051 | T 0.218 | P -0.738 | R 0.078 | E 0.071 | G -0.335 | L -0.054 | A 0.043 | Q 0.072 | Y -0.036 | I 0.066 | V -0.038 | N 0.054 | H 0.074 | K 0.154 | M 0.028
K9: H -0.091 | T -0.125 | R 0.009 | I -0.254 | L -0.066 | M -0.077 | W -0.235 | A -0.016 | G -0.154 | D -0.084 | P -0.576 | Q 0.04 | E -0.068 | S -0.166 | Y -0.158 | F -0.317 | C -0.243 | V -0.129 | N -0.136
T5: G -0.225 | S 0.042 | K -0.111 | A 0.026 | H -0.234 | N -0.42 | D -0.689 | M -0.067 | E -0.082 | W -0.616 | C -0.483 | I -0.332 | Q -0.091 | P -0.384 | Y -0.423 | F -0.772 | R -0.103
T3: W -0.252 | R -0.076 | Y 0.124
V17: P -0.182 | H -0.165 | R -0.139 | M 0.065 | G -0.146 | W -0.092 | I 0.013 | Q -0.082 | N 0.249 | F -0.071 | D -0.114 | C 0.115 | K 0.022 | L 0.026 | A -0.093 | Y -0.054 | S -0.036
P12: F -0.762 | D -1.02 | H -0.865 | W -0.488 | E -0.754 | K -0.875 | G -0.655 | S -0.665 | M -0.141 | A -0.142 | C -0.223 | T -0.207 | N -0.965 | I -0.324 | L -0.189 | Y -0.74 | Q -0.749 | R -0.89
H6: D 0.009 | Y -0.042 | T -0.05 | M -0.036 | L 0.067 | K -0.008 | V -0.003 | P 0.044 | R -0.092 | N 0.054 | S -0.056 | E 0.062 | W -0.135 | A 0.014 | C -0.065 | F -0.037 | I -0.014 | Q -0.062 | G -0.132
M15: K -0.668 | H -0.996 | V -0.745 | N -0.942 | F -1.02 | P -0.83 | E -0.949 | R -0.758 | S -0.75 | D -0.775 | W -0.899 | Y -0.926 | I -0.711 | G -0.94 | A -0.543 | Q -0.679 | L -0.172
D19: Q 0.033 | Y -0.023 | K -0.33 | F -0.035 | L 0.021 | M 0.031 | S 0.038 | N 0.063 | P -0.334 | V -0.167 | A -0.015 | T -0.047 | C -0.02 | R -0.073 | H 0.045 | G -0.196 | E -0.275 | I -0.044
K13: N 0.081 | R -0.221 | M 0.002 | D -0.16 | C -0.302 | Q -0.13 | E -0.195 | G -0.255 | A -0.094 | T -0.13 | Y -0.23 | F -0.308 | V -0.04 | I -0.052 | L -0.241 | P -0.187 | W -0.474 | S -0.147 | H -0.135
L10: H -0.701 | Q -0.516 | D -0.748 | P -0.606 | C -0.338 | G -0.562 | V -0.231 | A -0.474 | N -0.516 | F -0.535 | R -0.593 | I -0.203 | K -0.538 | S -0.577 | W -0.953 | M -0.107 | E -0.704 | Y -0.709
N18: S 0.081 | M 0.06 | K 0.124 | A 0.072 | Y -0.036 | G 0.019 | D -0.038 | W -0.015 | I 0.077 | C 0.051 | F -0.056 | P 0.072 | Q 0.085 | R 0.079 | H 0.042 | L 0.113 | V 0.05
K22: C -0.134 | N -0.097 | I -0.065 | F -0.16 | M -0.028 | D -0.239 | A -0.148 | H 0.024 | P -0.491 | E -0.242 | G -0.233 | Q -0.136
P4: Y 0.012 | N -0.133 | F -0.072 | W -0.142 | C 0.139 | V -0.033 | S 0.15 | G 0.1 | D -0.074 | Q -0.108 | H -0.206 | E -0.052 | R 0.075 | K 0.112 | I 0.029 | T -0.035
R21: G -0.603 | L -0.215 | P -0.682 | W -0.53 | M 0.036 | A -0.192 | I -0.006 | F -0.419 | H -0.199 | D -1 | C -0.039 | K -0.117 | E -0.541 | T -0.155 | S -0.191 | Q -0.259 | Y -0.256 | V -0.106

Source: the Human Domainome abundance scans (Beltran et al. 2025)
